{
  "source": "ChEMBL document CHEMBL1649076",
  "about": "“Discovery of 5-chloro-N2-[(1S)-1-(5-fluoropyrimidin-2-yl)ethyl]-N4-(5-methyl-1H-pyrazol-3-yl)pyrimidine-2,4-diamine (AZD1480) as a novel inhibitor of the Jak/Stat pathway” (J Med Chem, 2011)",
  "proteins": {"B1": {"name": "Tyrosine-protein kinase JAK2 (Homo sapiens), O60674 (protein)", "chain": "MGMACLTMTEMEGTSTSSIYQNGDISGNANSMKQIDPVLQVYLYHSLGKSEADYLTFPSGEYVAEEICIAASKACGITPVYHNMFALMSETERIWYPPNHVFHIDESTRHNVLYRIRFYFPRWYCSGSNRAYRHGISRGAEAPLLDDFVMSYLFAQWRHDFVHGWIKVPVTHETQEECLGMAVLDMMRIAKENDQTPLAIYNSISYKTFLPKCIRAKIQDYHILTRKRIRYRFRRFIQQFSQCKATARNLKLKYLINLETLQSAFYTEKFEVKEPGSGPSGEEIFATIIITGNGGIQWSRGKHKESETLTEQDLQLYCDFPNIIDVSIKQANQEGSNESRVVTIHKQDGKNLEIELSSLREALSFVSLIDGYYRLTADAHHYLCKEVAPPAVLENIQSNCHGPISMDFAISKLKKAGNQTGLYVLRCSPKDFNKYFLTFAVERENVIEYKHCLITKNENEEYNLSGTKKNFSSLKDLLNCYQMETVRSDNIIFQFTKCCPPKPKDKSNLLVFRTNGVSDVPTSPTLQRPTHMNQMVFHKIRNEDLIFNESLGQGTFTKIFKGVRREVGDYGQLHETEVLLKVLDKAHRNYSESFFEAASMMSKLSHKHLVLNYGVCVCGDENILVQEFVKFGSLDTYLKKNKNCINILWKLEVAKQLAWAMHFLEENTLIHGNVCAKNILLIREEDRKTGNPPFIKLSDPGISITVLPKDILQERIPWVPPECIENPKNLNLATDKWSFGTTLWEICSGGDKPLSALDSQRKLQFYEDRHQLPAPKWAELANLINNCMDYEPDFRPSFRAIIRDLNSLFTPDYELLTENDMLPNMRIGALGFSGAFEDRDPTQFEERHLKFLQQLGKGNFGSVEMCRYDPLQDNTGEVVAVKKLQHSTEEHLRDFEREIEILKSLQHDNIVKYKGVCYSAGRRNLKLIMEYLPYGSLRDYLQKHKERIDHIKLLQYTSQICKGMEYLGTKRYIHRDLATRNILVENENRVKIGDFGLTKVLPQDKEYYKVKEPGESPIFWYAPESLTESKFSVASDVWSFGVVLYELFTYIEKSKSPPAEFMRMIGNDKQGQMIVFHLIELLKNNGRLPRPDGCPDEIYMIMTECWNNNVNQRPSFRDLALRVDQIRDNMAG"}},
  "substrate": "Cc1cc(Nc2nc(N[C@H](C)c3ncc(F)cn3)ncc2Cl)n[nH]1",
  "description": "Inhibition of JAK2 using Km ATP concentration",
  "data": [
    {"protein": "B1", "values": [
      {"measurement": "Km", "result": 0.031, "unit": "µM"}
    ]}
  ]
}
